Results published in the domain aggregation screens of Martell et al. (2025).

Assay: soluble fraction after stress (log2 fold change); higher = more stays soluble; pooled small domains, quantitative proteomics
Settings: stress: pH 4
How it was run: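 High-throughput quantitative proteomics was run on pooled custom libraries of small protein domains following pH 4 stress. Fold changes are on a log2 scale; higher values mean more of a domain remained soluble. The fold change in soluble amount is taken as a measure of aggregation propensity.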

Sequence	soluble fraction (log2)
HMKPSKTVYTTANLNLRNGASMSAAVYTSVSRGTALATTGRTTSGWTQITHRGRTLWASSKYLTTTTPP	0.155
HMSWEDSLLKQAREIIDMYPQKRSAVGPLLHLAQSKDGYISDDSISVISKLVGITEVQLKSVSTFYSMYK	-1.23
HMIVDINDVRIDKYIADNTDYSRNLILNLIKNGDILVNDSKIKPSYKVKQGDKITINNVKTD	-0.284
HMNHTIEENDRVLILDPRGKKYLITVTNRVFHTNLGKLDISELIGKNYGDKIKSHMGKNFSILKPNLIDYI	0.053
HMFIVTDQMQRVLDYITEKEKATNNDLEELLGVKSTRIYTITRKLIQHNLIIPVGKGKNKYYIL	-0.724
HMSLTGFYNLTFKQADRLSVIDEAGEEVYKQAIAMGSTTKTIDLSALNAGVYFIRIYNGEVIAQEKIVLN	-0.958
HMSNKYYETILDWFKSQIMSGELKEGDTIPSERELATRFGVSRVPVREALRILEYIGIVSNTADGMTVQKV	-0.976
HMEEHSLRKQEMLRIIEALEQLTPKEKTVVVLYYFKGVLFKDIAMLLDVTEGRISQLHTAAMGRLKKLMD	-0.632
HMEFPYISGVDVGTISNKEFARFETTKASDIVIALDKSGIPFSARFGDSEIVLTYDGSYKEEVEEIIAKV	-0.115
HMFYNELMNFIVYKDSQKIGKIVNINDKLPQPVFEVLINDKKFMVPIHDDFIEKIDKEKKSIHIVIPDGLL	-1.01
HMKEINFTIEESAKGRLDKVIAENVADLTRSQVQSLIKKGQILVNDAPTTNRYQVKPNDQVIIKLPDPV	0.0442
HMNVTIGESIKNVINHYGTPIYSYNPNNQEKYYEFHTNKGVLVVTAIGKKNTGYVTRVSMTY	-0.175
HMDNIEIGNRIREIRIKKNISVFELAYRTKTSQSHIYQIEGGSQNMSIELLFKIADTLETDPNTILGV	-2.25
HMRPTDVLNYDESMRILNFSNNRVGFKHLMDAKGIEQVIFKNRKIGYRKSEILALKSELEAEQK	-0.0346
HMIMNDIQAKVLEIAETKDLGSITYYRLSKMLGVDHPYRVKYAIDKLIEKGLLTAKSDGSITKAI	0.204
HMADEEEIMVPQVVGKTYDEAKSELENAGFKVEKNEKTSDKASGTVISQSINGGAKKGTSVTLTVSKGN	0.132
HMLTTIRKATVNDKTRIMEIYAYARQFMAEHGNPNQWKNNNPSEETIDNDIAKQEMYVIETDGEVHAVFY	-1.42
HMVTTLLIINVAGKVKNPGVYQLPPGSRVVDALEAAGQQLKGVDISDINLARVLVDGEQILIGSN	-1.35
HMNKVDEEKNAELVSTIQNKFSDVSAATKKKVKAFMAEHDIPNFKNADEIPTANLEAIVAMLNED	0.22
HMAQNILPGQKNAIKSLATSAGFSQQELDSYLSQNYGKTLNNLSQKEGASLISGLQDGSIKKP	0.0359
HMEILVSTRRHEIASLLSRKKRVSFFELFPEKTKEYVVATFLAILEMAKAREVNITQEDTFDEIIVEEA	-1.09
HMDLKTNSQLINELEKKIKRPFDREIKNYLNKNLSTDRMISNNEIDKIILFYSGNNEIPNIEKISLILNDN	0.0193
HMVSGVMAQQAIAVLVQQEDKHAPLSDQALAERLQVQGIDISRRTVAKYRQLLQIPSAATRR	-0.0405
HMLNKRQAEILAEVSRLKEITPSELYKLQPNVSSRTLRRDMDVLVNKGLVSQDGSTKSTKYTYL	0.102
HMSADKAEAAEASLKSFNLRLQAAAMEAGKTFAPVTADQYAEYKAAWGTYIRKGIEGLSESEKKTINVG	-0.167

Sequence	soluble fraction (log2)
HMAEVGDFTLAELIKVLFNEAGVLKAPVELRNDNTGGLQYRVGAYTDSETGWETIASIADLKGA	-1.74
HMKVVEKHIVPQIQNPIRLQEYASSIFKTITTRSGIKKAIKKQLILLNRKPANTGDWIKEGQLLELLAEE	-0.569
HMKIAPRTAENQQLRKMILEIYTTSKKRVGPAKVRRMLLRDYGISISIGRVYRLMSTMNLPKMS	0.22
HMKGKDLQDAVVTVVGGAENWNAIRAWAQASASDSEKREINAAFQSGKLMATMMAERLALAYQQSG	0.0105
HMIGIGSDVPNKLKPAIYSFGLVAVGEKSVIPDGVQIGKNTAVSGVTSKEDYPDGVLESGETLIKA	0.22
HMLLNPFERLTERELEIADLYAKGYGNLEIANFLSIKQNTVSTYKKRIFEKLGIDNLVELIELIKNY	-0.839
HMVSFSIDEALVSAVKGPRSANVMSIQRQFLVRLSVERDGRVTITGANSKSVQQAREAVEAAVEEAKLHP	0.238
HMNYKDQISRYFQQAFHIYPKYQTMKNEEGNFTSKIFKDDKMIIEGVGKSKKKAEQDVSRKALIHFNVL	0.398
HMDAPIIRLLNSLVQRAVTTTASDIHIEPFEGETKVRMRIDGVIIDYVTLQRALHQPLIARIKIMSNLD	-0.237
HMEFSYMDQGLERYRAFLETHGHGNVPESYHELKLVNFVAHIRKLYRMNLLSEERRRALDEAGFVF	-1.24
HMDTFNVIARQEIDGILYEYKIMTVEDYKNQSPENLAVIYENIKAVMEQYDLSEDDADAILVDLLG	-1.51
HMKEMTAKQIDMFSDKLSKLESFQSHYIADAGVSVTEYKQAIAAKLQDQFYVEAWGKYLADVGFT	-1.13
HMKSAIKQNILLYLSNKGVTSYEFYKISGVTRGILQQSNGISEDNIAKFLAYAPDVNIEWLLTGKGDMLKH	-0.325
HMALPRYFFRTRENGAVLFKTPVNNHQNRLEMHQIAAINIRNETVKPLGDTVLTDEETELIADWMRERKTV	-0.596
HMNADTVIGKAGTVIEKIDNVAATGAVKIDGKVWTARSERDNITIDEGTLVKAMAIEGVKLIVEPVT	0.0947
HMGSGLAAAEKIRKAHPEIKIVVATSLIDTQVLARAKAVGADSLWYKDGDEGTLMQVVRRTMAGDHIFP	-0.366
HMSFNNHYEILQVQPSADREVIEAAAKALLKKHHPDLGGRNTITSHIVQAKKVLTDTSQRADFDARLRERL	0.165
HMTDFSDLSFKYNSEEKDVLNSINLKINGGEMTSLVGHSGAGKTTILNLIPRFYEKSKGDISIDGQSIY	-0.172
HMSKNIRQQFLDVLPKTFDRNQYLETAKKLSINAKTAEGYIKKFVEANLLDHPKHNHYINLKKVEEVETK	-0.0789
HMIISMKKGATPQEISHVRKLIEELGYKVHESQGSERMVFGAIGDERSKHRLTSLEAQPGVEKVIPILA	0.168
HMGRKEIIVPNLLGKYAIEAGTILKNAGLLEGQAREENSDTYPAGQIMDQFPKANTPANENDKVDYVVSI	-0.202
HMGKSDDSLAAEKFIQHVRKNGELSYEQAYRMVHAYFPDFRNFEGMVSGAVKSGYLILIQKSTGLFLRAKE	-0.205
HMVPEETKQFINQLNHGSLSIRMNAANNLEKLGLLAIPEIEAALPKAHGEAAFRLPRLLHALVLRETEYF	0.0598
HMTTHEQVAILRRELNGLVGAWHHRTGQAHGVTHSKLRKELGGPPAAVASAAQLSARIEKIRQWAT	-0.0306
HMGQISDESVLKEMVVQLIADNPKEVASYLGGKETLLQWFMGQVARATKGKADPQAVKQLLLDEFEKLK	-0.504

Sequence	soluble fraction (log2)
HMGDLVFDFVHGVHKAAEVEKELVMQALRFTHGNVSRAARLIGMQRSSLRYRIERYRLDAFVMEVAN	-0.0309
HMVINQRKLNLLSIYSSGSEKRAIILFPTGQTKFVKVGDTLDGGRVAAIGTSEIRYLKGGNNLVLRIPG	0.173
HMIAAPFVVKDIRVDGVQPATGEAIISSLPVKVGQTATDADVSNVVRQLFSLNRFQNVQATREGNTLVIKV	0.0417
HMGPLSDRSVADWLLRLGLADTANNRLLLQVMHAAGLPLERTAVRAMRETAAGRPEGTDAREWLQAAAAAQ	-0.326
HMTKGFSIQDISLSKSTMTFLQQNKITDLASLLSMSKSQIEGMKGFKPKMIQEIEKNLDKVGLVLAQD	-0.228
HMKGRPTTAIITDERTNLRSGPGATNKTIAQAGAGEKLAIIDEKDGWYQVSRAGINGWVAGWVIDVAW	-0.945
HMDGRVQATAEKLRAALDRLARSSVGSPMIERQLTVAALAREARVGRNAIYANHRDILDELIRVRQQRRA	-0.309
HMEQFRENIVRIYMEIDDYENGAKFLEMGNNRDASFYELAGDFYKYFGENELANENYDLAISA	-1.39
HMKKTDFNVENYDIEELAAILNFKYVPLNQGLIRDRIKDMKQRFKNKPEYIKFFTDVEIKLVNNLNLFN	-1.01
HMSTANIVVPDVKGKTFEEAKKAIEAEGLTAKAEGDESGVVQKTSPSYGVSVESGSEVTLTLVKSDD	0.0493
HMKNQQLFNIGDRFQVDGVAYRMEKLFPENGTVEVYNLGVGRHKTMSFEEILALWNSGKLLFEI	-0.945
HMLPLLAFDEKLNRLGYGGGFYDRTLASLAHKGNTITAIGIAYESQKMDKVPTGYFDRPLDGVLTPSGLIM	-0.0764
HMSDHSSLAGKEGVAVTPLRPAGTAEIDGKRMDVVTMGDYIKAGDHIKVVKVEGNRIIVAKN	-0.0102
HMVVLPGEVLRINVIQEGKEHGQGVGYMDDGTMVVIENGREFIGEYMEVNVTKVLQTAAGRMIFGRVD	-0.917
HMQVPFGFQRNPSTGTLEEKAEEQLIINQVLSLKNSGIGVSEISKRLGELSVSRIYRIINTAKKNAS	-0.107
HMNSTEQQTERFLATLTSLGGNAGNQRLQEALGWQGSTYQRIKQHLLDEGRIRTGRGRGGSVALSEATAT	≥ 0.43
HMKAEKEIEKIKFTIYNEFKRKQEENHFLPPWDGTKMLRQFVLGVVANNPKYQHVNTDILYRDLLLLYYQ	-0.166
HMDLHERISSVLLGTGKSNDELAQILGVNKNTISAYKNKHGDLKGIVLEGIVKHFDINPVWLLTGSGTR	0.0745
HMKEPIYQTILSALILELNTNHFRKNDPFYSESELRKKYQVSSTTVVRVLNMLADQGYIYRIQGKGSFVSK	-0.5
HMQPIQPNQAKYLDGLSSKYKGKGNHSQAAQLTALRDALNAGDHAKAREIYDKLDYEPQAEAAH	0.105
HMQEDQKTSIFDIEGVEKGVASVLSSIKVEIVSDLLEADMDDILKSGKISEDDLDGVYEAVQNFVER	-1.28
HMGTPSAEELAFSAQKGNAVMRIMEIREKYIENGGQISDEERNEIERLIAIYYPKASIFDYLPMMG	-1.42
HMERLSNQVYAILKEMIADYRFNPGARINVEQIAKEVGASRTPVWEAVHRLVQEGLLENIPNRGVFML	-1.11
HMNREMLVHAIGQLKEKYASALELKYWHGFTEREIAAFLNISEKAANSRLVRGRVMLRKLLE	0.139
HMREVTVGSAVRLKKGAKTYSGGSLASFVYERNHQVTQLSGDRAVISFKGTVVAAVHKDDLIL	-0.0626
